T1: human GIP receptor (human, UniProt P48546 22-466)
T1 sequence (looked up): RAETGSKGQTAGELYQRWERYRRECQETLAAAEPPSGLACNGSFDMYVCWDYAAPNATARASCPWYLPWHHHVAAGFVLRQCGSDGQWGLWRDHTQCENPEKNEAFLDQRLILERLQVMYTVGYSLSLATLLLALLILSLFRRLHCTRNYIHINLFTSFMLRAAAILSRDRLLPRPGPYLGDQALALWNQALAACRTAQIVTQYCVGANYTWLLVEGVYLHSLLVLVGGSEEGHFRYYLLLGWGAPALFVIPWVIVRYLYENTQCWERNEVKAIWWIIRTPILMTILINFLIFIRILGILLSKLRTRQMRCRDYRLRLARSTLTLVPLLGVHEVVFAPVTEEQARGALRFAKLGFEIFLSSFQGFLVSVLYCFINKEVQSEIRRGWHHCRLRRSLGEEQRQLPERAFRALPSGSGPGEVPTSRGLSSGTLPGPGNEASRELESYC


Tests used:
Experiment in all cases: cell-based or functional assay
[1] = molecular target: T1, human GIP receptor
[2] = molecular target: human GCG receptor (human, UniProt P47871 26-477)
[3] = molecular target: human GLP-1 receptor (human, UniProt P43220 24-463)

human GCG receptor, sequence (P47871 26-477): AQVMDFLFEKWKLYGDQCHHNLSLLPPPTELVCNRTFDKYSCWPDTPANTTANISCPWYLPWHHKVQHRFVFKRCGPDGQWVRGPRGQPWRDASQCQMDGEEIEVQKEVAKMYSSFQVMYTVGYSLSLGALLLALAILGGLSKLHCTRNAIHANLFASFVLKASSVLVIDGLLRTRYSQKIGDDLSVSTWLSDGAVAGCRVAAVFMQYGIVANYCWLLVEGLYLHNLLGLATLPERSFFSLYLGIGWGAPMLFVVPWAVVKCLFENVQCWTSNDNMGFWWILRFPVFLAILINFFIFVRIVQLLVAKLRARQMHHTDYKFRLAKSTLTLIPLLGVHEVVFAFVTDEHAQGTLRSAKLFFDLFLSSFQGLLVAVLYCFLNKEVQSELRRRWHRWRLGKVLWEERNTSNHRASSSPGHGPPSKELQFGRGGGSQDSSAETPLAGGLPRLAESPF

Binder | cAMP EC50, CHO cells stably overexpressing human GIP R [1] | cAMP Rel. A (%) against human GIP, human GIP R cells [1] | cAMP EC50, HEK-293 cells stably overexpressing human GCG R [2] | cAMP Rel. A (%) against human GCG, human GCG R cells [2] | cAMP EC50, HEK-293 cells stably overexpressing human GLP-1 R [3] | cAMP Rel. A (%) against human GLP-1 (7-37), human GLP-1 R cells [3]
YXQGTXTSDYSIXLDKKAQXAFIEFLLESHPSSXHPPXS (Aib at 2; αMeF at 6; αMeL at 13; Lys 17 side chain AEEAc-AEEAc-γGlu-CO(CH2)18COOH; Aib at 20; Aib at 34; Ac3c at 38; C-terminal amide (NH2)) [Compound 33] | 8 pM | 2260% | 155 pM | 36.8% | 19 pM | 232%
YXQGTXTSDYSIXLDKKAQXAFIEFLLESHPSSXHPPXS (Aib at 2; αMeF(2F) at 6; αMeL at 13; Lys 17 side chain AEEAc-AEEAc-γGlu-CO(CH2)18COOH; Aib at 20; Aib at 34; Ac3c at 38; C-terminal amide (NH2)) [Compound 40] | 120 pM | 151% | 167 pM | 34.1% | 16 pM | 275%
YXQGTXTSDYSIXLDKKAQXAFIEFLLEGGPSSXHPPPS (Aib at 2; αMeF at 6; αMeL at 13; Lys 17 side chain AEEAc-AEEAc-γGlu-CO(CH2)18COOH; Aib at 20; Aib at 34; C-terminal amide (NH2)) [Compound 36] |  | 2590% |  | 127% | 25 pM | 176%
YXQGTXTSDYSILLDKKAQXAFIEFLLESHPSSXHPPXS (Aib at 2; αMeF(2F) at 6; Lys 17 side chain AEEAc-AEEAc-γGlu-CO(CH2)18COOH; Aib at 20; Aib at 34; Ac3c at 38; C-terminal amide (NH2)) [Compound 41] | 73 pM | 248% | 81 pM | 70.4% | 12 pM | 367%
YXQGTXTSDYSIXLDKKAQXAFIEYLLESHPSSXHPPXS (Aib at 2; αMeF(2F) at 6; αMeL at 13; Lys 17 side chain AEEAc-AEEAc-γGlu-CO(CH2)18COOH; Aib at 20; Aib at 34; Ac3c at 38; C-terminal amide (NH2)) [Compound 43] | 41 pM | 441% | 127 pM | 44.9% | 10 pM | 440%
YXQGTXTSDYSIXLDKKAQXAFIEFLLEGRPSSXHPPPS (Aib at 2; αMeF at 6; αMeL at 13; Lys 17 side chain AEEAc-AEEAc-γGlu-CO(CH2)18COOH; Aib at 20; Aib at 34; C-terminal amide (NH2)) [Compound 37] | 15 pM | 1210% | 82 pM | 69.5% | 28 pM | 157%
YXQGTXTSDYSILLDKKAQXAFIEFLLESHPSSXHPPXS (Aib at 2; αMeF at 6; Lys 17 side chain AEEAc-AEEAc-γGlu-CO(CH2)18COOH; Aib at 20; Aib at 34; Ac3c at 38; C-terminal amide (NH2)) [Compound 42] | 70 pM | 259% | 495 pM | 11.5% | 9 pM | 489%
YXQGTXTSDYSIXLDKKAQXAFIEYLLESHPSSGAPPXS (Aib at 2; αMeF at 6; αMeL at 13; Lys 17 side chain AEEAc-AEEAc-γGlu-CO(CH2)18COOH; Aib at 20; Ac3c at 38; C-terminal amide (NH2)) [Compound 3] | 24 pM | 754% | 120 pM | 47.5% |  | 100%
YXQGTXTSDYSIXLDKKAQXAFIEFLLETRPSSXHPPPS (Aib at 2; αMeF(2F) at 6; αMeL at 13; Lys 17 side chain AEEAc-AEEAc-γGlu-CO(CH2)18COOH; Aib at 20; Aib at 34; C-terminal amide (NH2)) [Compound 39] | 15 pM | 1210% | 153 pM | 37.2% | 78 pM | 56.4%
YXQGTXTSDYSIXLDKKAQXAFIEYLLETGPSSGQPPXS (Aib at 2; αMeF(2F) at 6; αMeL at 13; Lys 17 side chain AEEAc-AEEAc-γGlu-CO(CH2)18COOH; Aib at 20; Ac3c at 38; C-terminal amide (NH2)) [Compound 34] | 5 pM | 3620% | 38 pM | 150% | 23 pM | 191%
YXQGTXTSDYSIFLDKKAQXAFIEFLLEGGPSSGAPPXS (Aib at 2; αMeF(2F) at 6; Lys 17 side chain AEEAc-AEEAc-γGlu-CO(CH2)18COOH; Aib at 20; Ac3c at 38; C-terminal amide (NH2)) [Compound 5] |  | 369% |  | 81.4% | 22 pM | 200%
YXHGTXTSDYSIXLDKKAQXAFIEYLLEXHPSSGQPPPS (Aib at 2; αMeF(2F) at 6; αMeL at 13; Lys 17 side chain AEEAc-AEEAc-γGlu-CO(CH2)18COOH; Aib at 20; Aib at 29; C-terminal amide (NH2)) [Compound 6] | 14 pM | 1290% | 58 pM | 98.3% | 20 pM | 220%
YXQGTXTSDYSIXLDKKAQXAFIEYLLETGPSSGQPPXS (Aib at 2; αMeF at 6; αMeL at 13; Lys 17 side chain AEEAc-AEEAc-γGlu-CO(CH2)18COOH; Aib at 20; Ac3c at 38; C-terminal amide (NH2)) [Compound 35] | 8 pM | 2260% | 87 pM | 65.5% | 22 pM | 200%
YXQGTXTSDYSIFLDKKAQXAFIEYLLEGGPSSGAPPXS (Aib at 2; αMeF(2F) at 6; Lys 17 side chain AEEAc-AEEAc-γGlu-CO(CH2)18COOH; Aib at 20; Ac3c at 38; C-terminal amide (NH2)) [Compound 4] | 57 pM | 318% | 71 pM | 80.3% |  | 107%
YXQGTXTSDYSIXLDKKAQXAFIEYLLETGPSSGXPPPS (Aib at 2; αMeF at 6; αMeL at 13; Lys 17 side chain AEEAc-AEEAc-γGlu-CO(CH2)18COOH; Aib at 20; Aib at 35; C-terminal amide (NH2)) [Compound 7] | 13 pM | 1390% | 58 pM | 98.3% | 10 pM | 440%

Source: patent publication US20250129135A1, “Multi-Agonist and Use Thereof” (priority 2021, published 2025)
